Laboratory results reported in patent US20260265780A1.

Target: CD8 (protein not named in Table 16)

B1: CD8 binder 97 (VHH) (VHH)
VHH: QVQLVESGGGLVQAGGSLRLSCAASGRTFSGYVMGWFRQAPGKQRKFVAAISRGGLSTSYADSVKGRFTISRDNAKNTVFLQMNTLKPEDTAVYYCAADRSDLYEITAASNIDSWGQGTLVTVSS
- Highest Response (nm): 0.465 nm
- Kd: 5.3 nM
- koff: 0.000272 s⁻¹
- kon: 51400 M⁻¹ s⁻¹
